In article PMC8816864 (Proteins, 2021):

B1: HSP26 (GFP fusion) (natural protein, S. cerevisiae, UniProt P15992 1-214, looked up)
chain: MSFNSPFFDFFDNINNEVDAFNRLLGEGGLRGYAPRRQLANTPAKDSTGKEVARPNNYAGALYDPRDETLDDWFDNDLSLFPSGFGFPRSVAVPVDILDHDNNYELKVVVPGVKSKKDIDIEYHQNKNQILVSGEIPSTLNEESKDKVKVKESSSGKFKRVITLPDYPGVDADNIKADYANGVLTLTVPKLKPQKDGKNHVKKIEVSSQESWGN
B2: eRF1-GFP (natural protein, S. cerevisiae, UniProt P12385 1-437, looked up)
chain: MDNEVEKNIEIWKVKKLVQSLEKARGNGTSMISLVIPPKGQIPLYQKMLTDEYGTASNIKSRVNRLSVLSAITSTQQKLKLYNTLPKNGLVLYCGDIITEDGKEKKVTFDIEPYKPINTSLYLCDNKFHTEVLSELLQADDKFGFIVMDGQGTLFGSVSGNTRTVLHKFTVDLPKKHGRGGQSALRFARLREEKRHNYVRKVAEVAVQNFITNDKVNVKGLILAGSADFKTDLAKSELFDPRLACKVISIVDVSYGGENGFNQAIELSAEALANVKYVQEKKLLEAYFDEISQDTGKFCYGIDDTLKALDLGAVEKLIVFENLETIRYTFKDAEDNEVIKFAEPEAKDKSFAIDKATGQEMDVVSEEPLIEWLAANYKNFGATLEFITDKSSEGAQFVTGFGGIGAMLRYKVNFEQLVDESEDEYYDEDEGSDYDFI
B3: HSC82 (GFP fusion) (natural protein)
chain: not shown
B4: SSA2-GFP (natural protein)
chain: not shown
B5: HSP60 (GFP fusion) (natural protein, S. cerevisiae, UniProt P19882 26-572, looked up)
chain: ELKFGVEGRASLLKGVETLAEAVAATLGPKGRNVLIEQPFGPPKITKDGVTVAKSIVLKDKFENMGAKLLQEVASKTNEAAGDGTTSATVLGRAIFTESVKNVAAGCNPMDLRRGSQVAVEKVIEFLSANKKEITTSEEIAQVATISANGDSHVGKLLASAMEKVGKEGVITIREGRTLEDELEVTEGMRFDRGFISPYFITDPKSSKVEFEKPLLLLSEKKISSIQDILPALEISNQSRRPLLIIAEDVDGEALAACILNKLRGQVKVCAVKAPGFGDNRKNTIGDIAVLTGGTVFTEELDLKPEQCTIENLGSCDSITVTKEDTVILNGSGPKEAIQERIEQIKGSIDITTTNSYEKEKLQERLAKLSGGVAVIRVGGASEVEVGEKKDRYDDALNATRAAVEEGILPGGGTALVKASRVLDEVVVDNFDQKLGVDIIRKAITRPAKQIIENAGEEGSVIIGKLIDEYGDDFAKGYDASKSEYTDMLATGIIDPFKVVRSGLVDASGVASLLATTEVAIVDAPEPPAAAGAGGMPGGMPGMPGMM
B6: HSP82 (GFP fusion) (natural protein)
chain: not shown
B7: SSA1-GFP (natural protein)
chain: not shown

How the values were obtained:
Flag-eRF1 [1] = molecular target: T1, Flag-eRF1 (S. cerevisiae, UniProt P12385 1-437); assay: co-IP + AUC
Flag-eRF1 [2] = molecular target: T1, Flag-eRF1; assay: co-IP + AUC; remark: listed apart in the source

Binder | normalized AU-FDS intensity relative to SUP35-GFP (19S peak) (Flag-eRF1 [1]) | normalized AU-FDS intensity relative to SUP35-GFP (28S peak) (Flag-eRF1 [1]) | normalized AU-FDS intensity relative to SUP35-GFP (39S peak) (Flag-eRF1 [1]) | normalized AU-FDS intensity relative to SUP35-GFP (57S peak) (Flag-eRF1 [1]) | normalized AU-FDS intensity relative to SUP35-GFP (77S-200S) (Flag-eRF1 [1]) | % abundance in the Flag-eRF1 pull-down normalized to SUP35 (19S-200S) (Flag-eRF1 [2]) [%]
B1 | 0.087 | 0.12 | 0.056 | 0.052 | 0.065 | 7.6 ± 2.9
B2 | – | – | – | – | – | 13 ± 4.5
B3 | 0.08 | 0.088 | 0.11 | 0.11 | 0.083 | 9.5 ± 3.5
B4 | 0.28 | 0.35 | 0.36 | 0.27 | 0.38 | 33 ± 3.45
B5 | 0.069 | 0.11 | 0.1 | 0.11 | 0.13 | 11 ± 0.75
B6 | 0.066 | 0.13 | 0.075 | 0.058 | 0.027 | 8.6 ± 2.9
B7 | 0.29 | 0.37 | 0.28 | 0.28 | 0.31 | 30 ± 0.63
